Measured values: US8357515

System: LAP-MMP IL-4

Sequence of MMP-1, recombinant (P03956 100-469): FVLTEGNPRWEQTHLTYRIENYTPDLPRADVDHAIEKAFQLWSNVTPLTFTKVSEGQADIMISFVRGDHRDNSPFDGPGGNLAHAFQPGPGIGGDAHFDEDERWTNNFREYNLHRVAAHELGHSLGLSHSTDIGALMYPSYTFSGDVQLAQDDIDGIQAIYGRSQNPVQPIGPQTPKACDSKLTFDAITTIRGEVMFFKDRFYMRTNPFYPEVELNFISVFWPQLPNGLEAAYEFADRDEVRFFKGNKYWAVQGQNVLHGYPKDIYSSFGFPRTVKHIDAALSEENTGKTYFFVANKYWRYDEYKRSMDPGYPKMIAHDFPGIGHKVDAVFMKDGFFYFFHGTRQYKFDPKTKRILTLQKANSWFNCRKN

## MMP-1, recombinant
  cleavage of the fusion protein in 293T supernatant after overnight incubation at 37 C, Western blot probed with anti-IL-4 antibody: LAP-MMP IL-4 is only cleaved by MMP-1
